Paper PMC4143955

Biological target: SCMV-BJ VPg-YFP^N (BiFC fusion, pUC-SPYNE) (Sugarcane mosaic virus, Beijing isolate (SCMV-BJ))
Assay: split reporter (BiFC, NanoBiT); BiFC: YFP^N and YFP^C fusions co-transfected into maize protoplasts; YFP fluorescence captured at 12-18 h post transfection by confocal microscopy

YFP^C-ZmElc (BiFC fusion, pGD-YFP^C-ZmELC) (natural protein)
percentage of protoplasts exhibiting fluorescence signal: 64%
